Test results reported in article PMC5849677, “A novel C3d-containing oligomeric vaccine provides insight into the viability of testing human C3d-based vaccines in mice” (Immunobiology, 2018).

Tests used:
hC3dg (aa 955-1303)-Fc = molecular target: T1, hC3dg (aa 955-1303)-Fc (human, UniProt P01024 955-1303); assay: SPR; Biacore; hC3d or C3d(g)-Fc fusions immobilised by amine coupling (94.3-96.2 RU); Fc-fusion analytes 0.195-50 nM in HBS-EP+, physiological salt, 360 s injection; steady state affinity model; apparent KD; conditions: both partners purified
T1 construct: human complement C3, C3dg fragment, aa 955-1303 (of pre-pro C3); also called hC3dg-Fc; hC3d with the g fragment attached
T1 sequence (P01024 955-1303): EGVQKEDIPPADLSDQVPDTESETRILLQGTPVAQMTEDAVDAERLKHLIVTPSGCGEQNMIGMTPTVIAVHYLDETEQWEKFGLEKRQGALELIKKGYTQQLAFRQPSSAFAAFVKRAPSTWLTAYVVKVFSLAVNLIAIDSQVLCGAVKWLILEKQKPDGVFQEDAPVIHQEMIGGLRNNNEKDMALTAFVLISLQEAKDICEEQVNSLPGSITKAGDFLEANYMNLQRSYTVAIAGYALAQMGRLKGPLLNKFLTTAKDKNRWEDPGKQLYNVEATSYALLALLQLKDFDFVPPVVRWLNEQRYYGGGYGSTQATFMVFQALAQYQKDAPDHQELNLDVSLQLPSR

mC3d-Fc = molecular target: T2, mC3d-Fc (mouse, UniProt P01027 1002-1303); assay: as above; conditions: both partners purified
T2 construct: mouse complement C3, C3d fragment
T2 sequence (P01027 1002-1303): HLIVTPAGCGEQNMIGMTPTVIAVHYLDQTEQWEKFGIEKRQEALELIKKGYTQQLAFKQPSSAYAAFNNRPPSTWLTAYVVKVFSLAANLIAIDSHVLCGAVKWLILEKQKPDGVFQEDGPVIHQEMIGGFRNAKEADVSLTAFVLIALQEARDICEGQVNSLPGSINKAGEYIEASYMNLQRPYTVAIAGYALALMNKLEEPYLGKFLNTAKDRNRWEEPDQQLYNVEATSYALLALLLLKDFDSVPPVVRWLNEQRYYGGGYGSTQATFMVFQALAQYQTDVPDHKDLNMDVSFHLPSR

B1: hCR2 (SCR1-4)-Fc (Fc fusion)
chain: ISCGSPPPILNGRISYYSTPIAVGTVIRYSCSGTFRLIGEKSLLCITKDKVDGTWDKPAPKCEYFNKYSSCPEPIVPGGYKIRGSTPYRHGDSVTFACKTNFSMNGNKSVWCQANNMWGPTRLPTCVSVFPLECPALPMIHNGHHTSENVGSIAPGLSVTYSCESGYLLVGEKIINCLSSGKWSAVPPTCEEARCKSLGRFPNGKVKEPPILRVGVTANFFCDEGYRLQGPPSSRCVIAGQGVAWTKMPVCEE
notes: human complement receptor 2, short consensus repeats 1-4; also called hCR2-Fc; soluble hCR2; source: CHO cells, transfected, purified from tissue culture supernatant
How did the Kd (hC3dg (aa 955-1303)-Fc) turn out when B1 was run?
The Kd was 3.1 to 5.1 nM.

What about the Kd (mC3d-Fc) of the same binder?
Its Kd is 1.47 ± 0.47 nM.

What about the “fold higher affinity than for hC3d-Fc” value (mC3d-Fc) of the same binder?
The value was 4 fold.
